Positions count from the first letter of the chain named. Read-outs that look alike come from different tables or passages of the source.
Columns and labels:
[1] = target: T1, P-cadherin-ECD1-3-Fc protein (human P-cadherin-Fc) (human, UniProt P22223 108-440); experiment: phage scFv ELISA, coated P-cadherin-ECD1-3-Fc
T1 construct: Construct was expressed with signal peptide and pro-peptide (PACE co-transfected to process the propeptide); not shown: hinge and CH2 and CH3 domains of human IgG1
Procedure, shortened: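 Plates coated overnight at 4° C with 2 μg/mL protein (or negative control protein) in PBS+Ca²⁺/Mg²⁺, blocked in 3% milk, then phage samples added 1 h at room temperature. Bound phage detected with anti-M13-HRP (1:2000) and TMB, stopped with H₂SO₄, absorbance read at 450 nm.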

[2] = target: T1, P-cadherin-ECD1-3-Fc protein (human …); experiment: phage scFv ELISA, coated P-cadherin-ECD1-3-Fc; remark: listed apart in the source
Experimental: ScFvs may be expressed on the surface of a phage particle. To prepare phage expressing scFv on their surface, 96-deep well plates containing 1 mL 2× TY media with 2% glucose/100 μg/mL ampicillin were inoculated with 0.5-1 μL from thawed glycerol stocks (one clone per well) using the QPix™2 Colony picker (Molecular Devices, Sunnyvale Calif.) and grown at 37° C. (900 rpm) for ˜4 hours. Next, 5 μL of a 1:29 dilution of helper phage (8.3×10¹³ pfu) was added and the plates and incubated for a further 30 minutes at 37° C. with no shaking then 1 hour at 300 rpm. Plates were centrifuged and the media was replaced with a kanamycin/non-glucose containing media (2× TY with 50 μg/mL kanamycin and 100 μg/mL ampicillin). Plates were grown overnight at 25° C. (900 rpm), and phage were harvested in the supernatant following centrifugation.
P-cadherin-ECD1-3-Fc protein or negative control protein was coated overnight at 4° C. on 96-well Nunc Maxisorp® plates (Thermo Fisher Scientific, Madison, Conn.) at a concentration of 2 μg/mL in PBS+Ca²⁺ and Mg²⁺. Plates were washed three times using PBS+Ca²⁺ and Mg²⁺ and blocked for 1 hour at room temperature in 3% milk/PBS+Ca²⁺ and Mg²⁺. Phage samples prepared as described above were added to the blocked plates for 1 hour at room temperature. Plates were washed three times with PBS+Ca²⁺ and Mg²⁺ prior to the addition of secondary antibody (anti M13-HRP 1:2000, GE Healthcare, Piscataway, N.J.). Plates were incubated for a further 1 hour at room temperature and washed six times with PBS+Ca²⁺ and Mg²⁺. Signal was developed using TMB (SurModics, Eden Prairie, Minn.), the reaction stopped with H₂SO₄ and the absorbance read at 450 nm on an EnVision® plate reader (Perkin Elmer, Waltham, Mass.).

[3] = target: T2, human P-cadherin, cell surface expressed (human, UniProt P22223 108-829); experiment: cell-based or functional assay
T2 sequence (P22223 108-829): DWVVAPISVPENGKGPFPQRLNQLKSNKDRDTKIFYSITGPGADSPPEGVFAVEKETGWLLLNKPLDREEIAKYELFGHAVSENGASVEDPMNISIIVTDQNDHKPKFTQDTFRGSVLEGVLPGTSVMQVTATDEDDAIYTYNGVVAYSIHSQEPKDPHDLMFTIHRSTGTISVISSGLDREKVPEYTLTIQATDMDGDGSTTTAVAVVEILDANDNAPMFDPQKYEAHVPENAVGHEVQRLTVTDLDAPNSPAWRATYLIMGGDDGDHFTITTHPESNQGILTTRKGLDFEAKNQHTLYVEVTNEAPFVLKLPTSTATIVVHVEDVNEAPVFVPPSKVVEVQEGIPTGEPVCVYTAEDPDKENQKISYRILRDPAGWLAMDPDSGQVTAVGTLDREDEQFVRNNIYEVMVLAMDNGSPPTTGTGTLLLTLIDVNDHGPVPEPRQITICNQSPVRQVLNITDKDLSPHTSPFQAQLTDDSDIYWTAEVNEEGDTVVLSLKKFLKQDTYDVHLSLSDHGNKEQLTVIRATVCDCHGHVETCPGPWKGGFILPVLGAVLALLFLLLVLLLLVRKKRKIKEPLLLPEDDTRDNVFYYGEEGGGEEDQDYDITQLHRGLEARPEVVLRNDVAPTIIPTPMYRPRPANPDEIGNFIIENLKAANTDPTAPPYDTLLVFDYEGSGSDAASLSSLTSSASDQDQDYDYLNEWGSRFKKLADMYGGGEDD

[4] = target: T3, cynomolgus monkey P-cadherin ECD (cynomolgus monkey); experiment: SPR Biacore
T3 construct: extracellular domain; also called cyno P-cadherin ECD; Cyno P-cadherin
Experimental: Binding affinity of EK-DART proteins to P-cadherin and CD3 was analyzed by SPR using a BIACORE® 3000 biosensor (GE Healthcare). The antigens huCD3εδ and either human P-cadherin-Fc or human/cynomolgus monkey/murine P-cadherin-ECD were immobilized on the CM-5 sensor chip by amine coupling kit as recommended by the manufacturer. […] All EK-DART proteins in Tables 15 and 16 comprise CD3-2.
All EK-DART proteins in Table 17 comprise CD3-2.

[5] = target: T2, human P-cadherin, cell surface expressed; experiment: cell-based or functional assay; remark: listed apart in the source

T1 sequence (P22223 108-440): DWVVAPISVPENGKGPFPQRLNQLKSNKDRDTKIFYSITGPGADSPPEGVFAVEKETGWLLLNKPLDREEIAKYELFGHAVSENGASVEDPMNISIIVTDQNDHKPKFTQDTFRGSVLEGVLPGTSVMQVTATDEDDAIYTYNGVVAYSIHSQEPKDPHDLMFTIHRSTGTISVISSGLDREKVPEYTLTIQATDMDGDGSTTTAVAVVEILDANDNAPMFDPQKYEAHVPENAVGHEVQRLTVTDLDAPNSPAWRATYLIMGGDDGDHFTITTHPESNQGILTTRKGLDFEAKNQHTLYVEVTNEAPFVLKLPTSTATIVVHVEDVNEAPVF

B1: anti-P-cadherin scFv 153 (parental clone 153), displayed on phage (scFv, V domains shown)
VH: EVQLVQSGAEVKKPGASVKVSCKASGYTFTSYGISWVRQAPGQGLEWMGWISAYNGNTNYAQKLQGRVTMTTDTSTSTAYMELRSLRSDDTAVYYCATIDTANAFGIWGQGTMVTVSS
VL: QSVLTQPPSVSAAPGQKVTISCSGSSSNIGNNYVSWYQQLPGTAPKLLIYDNNKRPSGIPDRFSGSKSGTSATLGITGLQTGDEADYYCGTWDSSLSGVVFGGGTKLTVL
notes: scFv expressed on the surface of phage
- % of binding of Clone #153 to human P-cadherin-Fc [1]: 100%
- Human P-cadherin-Fc binding (OD450) [1]: 1.32 OD450
- Z Score [1]: 0
- % of binding of Clone #153 to human P-cadherin-Fc [2]: 100%
- Human P-cadherin-Fc binding (OD450) [2]: 1.32 OD450
- Z Score [2]: 0

B2: anti-P-cadherin scFv 153 alanine-mutant L3.11-Ala (scFv, V domains shown)
VH: B1 VH
VL: B1 VL with V100A
notes: scFv on phage
- % of binding of Clone #153 to human P-cadherin-Fc [2]: 104%
- Human P-cadherin-Fc binding (OD450) [2]: 1.38 OD450
- Z Score [2]: 0.1

B3: anti-P-cadherin scFv 153 alanine-mutant L3.10-Ala (scFv, V domains shown)
VH: B1 VH
VL: B1 VL with V99A
notes: scFv on phage
- % of binding of Clone #153 to human P-cadherin-Fc [2]: 141%
- Human P-cadherin-Fc binding (OD450) [2]: 1.86 OD450
- Z Score [2]: 0.9

B4: anti-P-cadherin scFv 153 alanine-mutant L3.9-Ala (scFv, V domains shown)
VH: B1 VH
VL: B1 VL with G98A
notes: scFv on phage
- % of binding of Clone #153 to human P-cadherin-Fc [2]: 166%
- Human P-cadherin-Fc binding (OD450) [2]: 2.19 OD450
- Z Score [2]: 1.4

B5: anti-P-cadherin scFv 153 alanine-mutant L3.8-Ala (scFv, V domains shown)
VH: B1 VH
VL: B1 VL with S97A
notes: scFv on phage
- % of binding of Clone #153 to human P-cadherin-Fc [2]: 173%
- Human P-cadherin-Fc binding (OD450) [2]: 2.28 OD450
- Z Score [2]: 1.5

B6: 20 EK-DART (P-CAD 20 x CD3-2) (bispecific antibody)
chain 1: AIQMTQSPSSLSASVGDRVTITCRASQSIGKYLNWYQQIPGKAPKLLIYTASTLQTGVPSRFSGSGSGTDFTLTIVSLQPEDFATYYCQQSFNTPRTFGQGTKVEIKGGGSGGGGEVQLVESGGGLVQPGGSLRLSCAASGFTFNTYAMNWVRQAPGKGLEWVARIRSKYNNYATYYADSVKDRFTISRDDSKNSLYLQMNSLKTEDTAVYYCVRHGNFGNSYVSWFAYWGQGTLVTVSSGGCGGGKVAALKEKVAALKEKVAALKEKVAALKE
chain 2: QAVVTQEPSLTVSPGGTVTLTCRSSTGAVTTSNYANWVQQKPGQAPRGLIGGTNKRAPWTPARFSGSLLGGKAALTITGAQAEDEADYYCALWYSNLWVFGGGTKLTVLGGGGSGGGGEVQLVQSGAEVKKPGASVKVSCKASGYTFTGYYMHWVRQAPGQGLEWMGRINPNSGGTNYAQKFQGRVTMTRDTSISTAYMELSRLRSDDTAVYYCAKGSGSGAFDIWGQGTMVTVSSGGCGGGEVAALEKEVAALEKEVAALEKEVAALEK
- T cell directed cytotoxicity EC50, CHO-CDh3 (24 h), LDH release, human PBMC E:T 30:1 [3]: 169 nM
- T cell directed cytotoxicity EC50, H1650 (24 h), LDH release, human PBMC E:T 30:1 [3]: 36.4 nM

B7: 33 EK-DART (P-CAD 33 x CD3-2) (bispecific antibody)
chain 1: QSVLTQPPSVSAAPGQKVTISCSGSSSNIGNNYVSWYQQLPGTAPKLLIYDNNKRPSGIPDRFSGSKSGTSATLGITGLQTGDEADYYCGTWDSSLSAYVFGTGTKVTVLGGGSGGGGEVQLVESGGGLVQPGGSLRLSCAASGFTFNTYAMNWVRQAPGKGLEWVARIRSKYNNYATYYADSVKDRFTISRDDSKNSLYLQMNSLKTEDTAVYYCVRHGNFGNSYVSWFAYWGQGTLVTVSSGGCGGGKVAALKEKVAALKEKVAALKEKVAALKE
chain 2: QAVVTQEPSLTVSPGGTVTLTCRSSTGAVTTSNYANWVQQKPGQAPRGLIGGTNKRAPWTPARFSGSLLGGKAALTITGAQAEDEADYYCALWYSNLWVFGGGTKLTVLGGGGSGGGGQMQLVQSGAEVKKPGASVKVSCKASGYTFTSYGISWVRQAPGQGLEWMGWISAYNGNTNYAQKLQGRVTMTTDTSTSTAYMELRSLRSDDTAVYYCALIGSGVAFDIWGQGTMVTVSSGGCGGGEVAALEKEVAALEKEVAALEKEVAALEK
- T cell directed cytotoxicity EC50, CHO-CDh3 (24 h), LDH release, human PBMC E:T 30:1 [3]: 0.309 nM
- T cell directed cytotoxicity EC50, H1650 (24 h), LDH release, human PBMC E:T 30:1 [3]: 4.1 nM
- T cell directed cytotoxicity EC50, H1650 (40 h), LDH release, human PBMC E:T 30:1 [3]: 1.12 nM

B8: 165 EK-DART (bispecific antibody)
chain 1: B7 chain 1 with T81A
chain 2: B7 chain 2 with Q119E, M120V, L216T, G218D, S219T, G220A, V221N
- Kd [4]: 0.37 nM
- koff [4]: 0.000309 s⁻¹
- kon [4]: 834000 M⁻¹ s⁻¹

B9: 154 EK-DART (P-CAD 154 x CD3-2) (bispecific antibody)
chain 1: B7 chain 1 with A98S
chain 2: B7 chain 2 with Q119E, M120V, L216T, G218D, S219T, G220A, V221T
- T cell directed cytotoxicity EC50, H1650 LDH 24 hr 30:1 D41183 [5]: 0.0107 nM
- T cell directed cytotoxicity EC50, HCT116 Luc 48 hr 10:1 D43905 [5]: 0.0166 nM

B10: 34 EK-DART (P-CAD 34 x CD3-2) (bispecific antibody)
chain 1: B7 chain 1 with L4V, Y99W, T103G, V107L
chain 2: B7 chain 2 with Q119E, M120V, L216T, G218D, S219T, G220A, V221S
- T cell directed cytotoxicity EC50, CHO-CDh3 (24 h), LDH release, human PBMC E:T 30:1 [3]: 0.737 nM
- T cell directed cytotoxicity EC50, H1650 (24 h), LDH release, human PBMC E:T 30:1 [3]: 5.6 nM
- T cell directed cytotoxicity EC50, H1650 (40 h), LDH release, human PBMC E:T 30:1 [3]: 1.6 nM
